Assay results reported in PMC9283966.

Columns and labels:
Conditions in all cases: glycan lost
[1] = chromogenic anti-FXa assay, recombinant protein
[2] = Western blot of thrombin-antithrombin complexes
[3] = Western blot of conditioned medium
[4] = control: β antithrombin (Ala169)
[5] = control: wild type (Ser169 background)

Substance	other: protease inhibitory activity, other: anti-FXa activity [1, 4]	other: protease inhibitory activity [2, 4]	expression_or_secretion [3, 4]	other: protease inhibitory activity, other: anti-FXa activity [1, 5]	other: protease inhibitory activity [2, 5]	expression_or_secretion [3, 5]
antithrombin: His224 in β background	abolishes	abolishes	decreases	–	–	–
antithrombin: p.Asn224His	–	–	–	no change, 1.38 vs 1.39	no change	decreases
